One block for each binder: values may come before it.
B2: Cmr1 (TTHB162) (natural protein, Thermus thermophilus HB8 (endogenous), UniProt Q53W07 1-395, looked up)
chain: MRRAFREAFSPRRKEEGGVLVRRDGARVLAWERTYTLLTPLFGGGVEPREADPVSVVRATAVRGHLRFWWRAVRGWRAGGSLERLWELESALFGSAGEGGASPLSVEVEVLREGEKVGIAQYGRAVQWYLGFPLRGDKEWAPVKEGVAFRLRLRFPEKVGELNFWEELEAALWAWETFGGIGARTRRGFGALLPQGAGVPGEEEIREKLRQYGQKAGWPEGVPHLTPKSFVRVVPLSWRELAERYQAFRQARPGGDPRSPGRSYWPEPDGVRRLTGRHAPHHLPRHPVHKFPRAHFGLPIIFHFKDRGDPPDTTLRLKEADRRASPLLFRPLGEGQKPCVVAVLEGARFPGEKLVLEGKDGRTWDVDPWLTPEEAQKIPVLGGEVDPVLAFVKSL
B4: Cmr3 (TTHB161) (natural protein, Thermus thermophilus HB8 (endogenous), UniProt Q53W08 1-361, looked up)
chain: MLIEPRDPLIVRDGRPFTNSPGARAKSLPFPLPQTLAGAYRTRRALLEGLPLPERAEEVLRWGLRGPLLAEEGEGGWRLLAPRPLDALKLGEALYPLRPLELPQGAGTNLPEGLSPVGLPSPALKEKPAPLPAFWYWESFLEWLLQDAPAGFAPRGHEGPVPETRTHVALDPAAQTAREGFLFQTSGLEFVRGRRRLALVLWPEGPEPEGVFPLGGERRLAFWQKGGPGVPPLPEEVVAGLLRHRAARLVFLTPAFLGEAYLPKGRAFQGASVVAAVVGRPLAVSGWNLKEGKPKPSRRAVPAGSVYFVRLPEAWGEGEVRDWAEKVWFQNLSEEEQDRRDGFGLAALGLWDGKLRRWEEA
B5: Cmr4 (TTHB163) (natural protein, Thermus thermophilus HB8 (endogenous), UniProt Q53W06 2-286, looked up)
chain: SHVALLFLHALSPLHAGTGQGIGAIDLPIAREKATGIPYLPGSSLKGVLRDRASAWDRDTLFAVFGPDTENASEHAGAVQVGDAKLLLLPVRSLYGVFALVASPYLLERFRREALMAGLQPPGVPGLQDPTRVLLAPGSRLLGDGEKVYLEDLDLKAQGEEGVAAWERWLAERTEAPVLGRLAVVHDDLMGFLLETATEVVARIRLDDETKTVAKGALWYEESLPAESLLYALVRADRSFRKGKELPPEGVWALFRGVLEEGGGVLQLGGKATVGRGLCRIVVGR
B6: Cmr2 (TTHB160) (natural protein, Thermus thermophilus HB8 (endogenous), UniProt Q53W09 1-584, looked up)
chain: MEHLLAIALGPVQEFIATARRTRDLYAGSRLLSEAAARAAKALAREVGAKNLIFPAPEDEAGLERLAGAGIPNVLLVRVPEGKDPRGLGEQALGAARDYLRERAEEVLGPRRDLLFWREALAQVEDLLEGYYAYLPLEGDYPRARERLMALLAARKNTRDFAPVSWGSPAYKSSLDGARESVLRLPEKEADHLRVRLGLRPGEYLAGPDLLKRWWKAGHGFLSTTHMAALPFWEGVRRAGLEAVLKEALEELGGLVGEEARAEVRHPVLRDTPFGEWDVRLLYESRLEEFPSLAEDPGLLEKARDRLRALWRRLFPKVRVPPGAYYALLHADGDRMGETLDGLPSPEAHRRFSNALALGFAAQVKDIVEAHGGGLVYSGGDDVLALLPLHTALMAARALADRFREAMAPFGREGRAPSLSVGLAVVHHLEPLQDALDLARRAEKWAKEGEPKRNALCVAYSPRSGAERLVRGRWDENPPLTRRLLRYADLLRAGEVPSRAAYELLALVREAGEALSGEALVAEALRILGRKEMKRAYREELEAWLRTGEDVRRLAEELILARPFAEALDQAGVPVESREVWDAH
B7: Cmr6 (TTHB165) with a (His)6 tag at its C-terminus (natural protein, Thermus thermophilus HB8, UniProt Q53W04 2-348, looked up)
chain: GRRSALEGVRLPQGKEPHRGLWLDKFLRSARREDTEAKRVLVREAAGIPEPGEYRAFFKRYRGALEALGAEIREARTLSRLVVGLGGEGVLETALTLHRAYGVPYIPGSALKGLASRYAHLYLEGEAWRRDLARFHRGEAQAGLFGTTEEQGLVVFWDALPLPGKWKLHPDILNPHHPDYYGSVKAPPADWDGPKPVPFLSATGTFLLALSPAPGVSPEEAGPWLRAAWRILAWALREEGVGAKTSSGYGRMALEEPASQGEKPLAPGPSPVLQDLLTWARALSYREVPRFLASQAEAILGLSVEEAQALRRALEERGFLRNPQDLKRWRKEHPGLEGVLAKLGLSA

Tests used:
[1] = biological target: B7; assay: native MS
[2] = biological target: B5; assay: negative-stain electron microscopy, single particle reconstruction
[3] = biological target: T1, recombinant Cmr2 (TTHB160), no tag (Thermus thermophilus HB8, UniProt Q53W09 1-584); assay: native MS
T1 sequence (looked up): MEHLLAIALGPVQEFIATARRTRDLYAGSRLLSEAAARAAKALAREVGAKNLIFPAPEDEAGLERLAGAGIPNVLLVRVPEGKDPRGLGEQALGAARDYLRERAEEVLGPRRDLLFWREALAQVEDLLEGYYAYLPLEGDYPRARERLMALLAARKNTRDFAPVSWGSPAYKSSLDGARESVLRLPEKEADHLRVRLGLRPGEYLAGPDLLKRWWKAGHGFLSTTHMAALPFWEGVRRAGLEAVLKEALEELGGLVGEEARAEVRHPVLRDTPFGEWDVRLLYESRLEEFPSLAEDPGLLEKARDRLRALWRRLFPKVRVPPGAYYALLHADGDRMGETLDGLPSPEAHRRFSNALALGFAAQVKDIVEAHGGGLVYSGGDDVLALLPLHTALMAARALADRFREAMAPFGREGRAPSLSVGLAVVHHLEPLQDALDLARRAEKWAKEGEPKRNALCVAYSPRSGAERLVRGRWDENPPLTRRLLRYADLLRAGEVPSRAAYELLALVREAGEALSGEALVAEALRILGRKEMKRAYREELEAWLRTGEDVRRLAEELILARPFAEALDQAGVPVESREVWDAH

[4] = biological target: B6; assay: negative-stain electron microscopy, single particle reconstruction
[5] = biological target: the molecule itself; assay: as above
[6] = biological target: B2; assay: affinity purification with mass spectrometry
[7] = biological target: B6; assay: affinity purification with mass spectrometry
[8] = biological target: B4; assay: affinity purification with mass spectrometry

stoichiometry N [1]: 3 copies per Cmr6 | binding result [2]: binds
B1: Cmr5 (TTHB164) (natural protein, Thermus thermophilus HB8 (endogenous), UniProt Q53W05 1-114, looked up)
chain: MRTRSQVWAQKAYEKVREAAKGEGRGEYRDMALKLPVLVRQAGLSQALAFVDSRGKEAHKALGNDLAQVLGYRDLRELAEAAREAELLQYLRLTREVLAAAEWFKRFAQALIEE

Binder: B2
stoichiometry N [1]: 1 copies per Cmr6

binding result [3]: binds
B3: recombinant Cmr3 (TTHB161), no tag (natural protein, Thermus thermophilus HB8, UniProt Q53W08 1-361, looked up)
chain: MLIEPRDPLIVRDGRPFTNSPGARAKSLPFPLPQTLAGAYRTRRALLEGLPLPERAEEVLRWGLRGPLLAEEGEGGWRLLAPRPLDALKLGEALYPLRPLELPQGAGTNLPEGLSPVGLPSPALKEKPAPLPAFWYWESFLEWLLQDAPAGFAPRGHEGPVPETRTHVALDPAAQTAREGFLFQTSGLEFVRGRRRLALVLWPEGPEPEGVFPLGGERRLAFWQKGGPGVPPLPEEVVAGLLRHRAARLVFLTPAFLGEAYLPKGRAFQGASVVAAVVGRPLAVSGWNLKEGKPKPSRRAVPAGSVYFVRLPEAWGEGEVRDWAEKVWFQNLSEEEQDRRDGFGLAALGLWDGKLRRWEEA

Binder: B4
stoichiometry N [1]: 1 copies per Cmr6 | binding result [4]: binds

Binder: B5
stoichiometry N [1]: 4 copies per Cmr6 | stoichiometry N [5]: 4

Binder: B6
stoichiometry N [1]: 1 copies per Cmr6

Binder: B7
binding result [6]: binds | binding result [7]: binds | binding result [8]: binds

Source: paper PMC4006948 (Molecular cell, 2013)
